# Laboratory results taken from paper PMC12400496 (Bioscience Reports, 2025).
# B1: FAD reductase CtcQ from Kitasatospora aureofaciens (N-terminal tag removed) (enzyme, UniProt S4S3E3 1-191, looked up)
# chain: MPPEPLSLPLDLAPGLVDGDTFLSIMGALPTGVTVVTTLGPDGEPYGLTCSAACSVSKAPPLLLVCINRDSRVLKALLERGEFAVNVLRGGGESTSARFAAPVDDRFRDVRWEPGSAGGVPVMSADVVAHAECRVAAALDAGDHTIVIGAVVAGGPRPEVPSPLMYWRRSYARWPVEEDPRTAALTLAAEG
# notes: a second construct with a C-terminal His6 tag (pET22b) was used only for the reductase activity assay; also called flavin reductase CtcQ; source: E. coli BL21(DE3), purified (Ni2+-chelating chromatography, tag cleavage, S-200 size exclusion); not shown: His10, N-terminal, cleaved
# Assays:
# [1] = target: CtcP (1-516), C-terminal truncation mutant lacking the helical hairpin (residues 1-516, P516G) (Kitasatospora aureofaciens); assay: SEC; S-200 column in 40 mM Tris pH 8.0, 100 mM NaCl, 2 mM BME; position of monomeric PltM as marker
# [2] = target: T1, CtcQ (Kitasatospora aureofaciens, UniProt S4S3E3); assay: NADH oxidation, absorbance at […] nm; format: biochemical; settings: 0.1 mM FMN, 1 mM NADH, 1.7 uM CtcQ (C-terminal His6), 20 mM HEPES pH 7.5
# T1 construct: full length; crystal: N-terminal His10 tag cut by PreScission protease; reductase assay: C-terminal His6 tag kept; homodimer; primers encode N-terminus MPPEPLS and C-terminus TLAAEG
# [3] = target: halogenase CtcP from Kitasatospora aureofaciens, full-length (Kitasatospora aureofaciens); assay: crystal structure; CtcP in complex with PEG and sulfate; hanging drops, 100 mM HEPES pH 7.0, 1.6 M ammonium sulfate, 2% PEG 400, 21 °C
# [4] = target: halogenase CtcP from Kitasatospora aureofaciens, full-length (Kitasatospora aureofaciens); assay: SEC; S-200 column in 40 mM Tris pH 8.0, 100 mM NaCl, 2 mM BME; position of monomeric PltM as marker
# [5] = target: halogenase CtcP from Kitasatospora aureofaciens, full-length (Kitasatospora aureofaciens); assay: crystal structure; CtcP in complex with FAD and Cl-; crystals from 0.1 M HEPES pH 7.5, 26% PEG 4000, 0.2 M Li2SO4, 21 °C, soaked with 1 mM FAD for 16 h
# [6] = target: T1, CtcQ; assay: X-ray crystal structure (co-crystal); format: binding; settings: co-crystallised with 5 mM NAD and 5 mM FAD, pH 7.5
# [7] = target: T2, CtcP (Kitasatospora aureofaciens, UniProt A0A1E7MYN1); assay: X-ray crystal structure (FAD soak); format: binding; settings: chloride ion bound near isoalloxazine ring; soaked with 1 mM FAD, 20 mM NaCl, pH 7.5, 16 h
# T2 construct: full length, 555 residues; N-terminal His10 tag cut by PreScission protease; expressed in E. coli BL21(DE3); homodimer; primers encode N-terminus MTDTTAD and C-terminus AMRVKP
# [8] = target: the molecule itself; assay: crystal structure; CtcQ in complex with FAD and NAD; hanging drops, 0.1 M Tris pH 7.5, 0.6 M KH2PO4, 0.6 M NaH2PO4, 21 °C, 5 mM NAD and 5 mM FAD
# T2 sequence (A0A1E7MYN1 whole entry): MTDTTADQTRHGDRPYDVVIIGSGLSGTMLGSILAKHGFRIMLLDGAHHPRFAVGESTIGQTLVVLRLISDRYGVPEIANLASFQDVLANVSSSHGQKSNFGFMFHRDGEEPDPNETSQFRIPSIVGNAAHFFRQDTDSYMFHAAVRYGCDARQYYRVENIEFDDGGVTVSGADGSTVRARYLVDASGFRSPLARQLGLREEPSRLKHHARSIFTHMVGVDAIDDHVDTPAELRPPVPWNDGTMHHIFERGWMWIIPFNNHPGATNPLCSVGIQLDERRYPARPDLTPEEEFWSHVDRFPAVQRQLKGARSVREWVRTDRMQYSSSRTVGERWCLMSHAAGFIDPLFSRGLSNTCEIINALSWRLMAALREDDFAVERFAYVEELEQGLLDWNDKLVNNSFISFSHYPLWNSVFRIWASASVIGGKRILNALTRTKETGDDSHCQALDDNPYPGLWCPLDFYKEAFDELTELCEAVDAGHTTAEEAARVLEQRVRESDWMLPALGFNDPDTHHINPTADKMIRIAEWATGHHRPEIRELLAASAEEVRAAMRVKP
molecule,measurement,setting,value
"CtcP (1-516), C-terminal truncation mutant lacking the helical hairpin (residues 1-516, P516G) (domain or fragment)",stoichiometry N,[1],2
Cc1cc2nc3c(=O)[nH]c(=O)nc-3n(C[C@H](O)[C@H](O)[C@H](O)COP(=O)(O)O)c2cc1C [FMN],"NADH oxidation, absorbance at 340 nm",[2],"CtcQ, which was highly active with either FAD or FMN as a substrate"
"halogenase CtcP from Kitasatospora aureofaciens, full-length (enzyme)",stoichiometry N,[3],2
same,stoichiometry N,[4],2
same,stoichiometry N,[5],2
NC(=O)c1ccc[n+]([C@@H]2O[C@H](COP(=O)(O)OP(=O)(O)OC[C@H]3O[C@@H](n4cnc5c(N)ncnc54)[C@H](O)[C@@H]3O)[C@@H](O)[C@H]2O)c1 [NAD],X-ray crystal structure (co-crystal),"[6]; U-shaped, stacked on FAD, text also calls the bound molecule NADH",determined the crystal structure of CtcQ in complex with FAD and NAD
Cc1cc2nc3c(=O)[nH]c(=O)nc-3n(C[C@H](O)[C@H](O)[C@H](O)COP(=O)(O)OP(=O)(O)OC[C@H]3O[C@@H](n4cnc5c(N)ncnc54)[C@H](O)[C@@H]3O)c2cc1C [FAD],X-ray crystal structure (co-crystal),"[6]; flavin subsite, second FAD also in the NAD subsite of most active sites",determined the crystal structure of CtcQ in complex with FAD and NAD
same,X-ray crystal structure (FAD soak),[7],We obtained crystals of the CtcP-FAD complex by soaking FAD into the CtcP crystals
B1,stoichiometry N,[8],2
